PMC8699718, “A structurally conserved site in AUP1 binds the E2 enzyme UBE2G2 and is essential for ER-associated degradation” (PLoS Biology, 2021)

Target: T1, gp78 RING (Homo sapiens, UniProt Q9UKV5)
T1 construct: The gp78-RING construct (aa 313 to 393) was generated by inserting a stop codon; GST (pGEX-4T-2 vector) (N); made in house
Experiment: NMR titration (1H-15N HSQC CSP) of 15N-UBE2G2 with or without G2BR with gp78 RING
Type: binding
Conditions: overall value; 15N-UBE2G2 150 μM, gp78 RING 0-450 μM, 50 mM Tris-Cl pH 7.0, 0.5 mM TCEP, 100 μM zinc sulfate, 0.05% sodium azide; G2BR 1:1.1 where present; read-out: affinity for gp78 RING (Kd) by NMR CSP
Experimental: Fig 5 Titration of UBE2G2:G2BR with gp78 RING. Superposition of ^15N-^1H^N HSQC NMR spectra for apo-UBE2G2 and UBE2G2 bound to G2BR^AUP1 (A) or G2BR^gp78 (B). Spectra for UBE2G2 (150 μM) bound to G2BR were acquired at a 1:1.1 ratio. (C) Superposition of the spectra for apo-UBE2G2, UBE2G2:G2BR^AUP1, and UBE2G2:G2BR^gp78, illustrating the equivalence of perturbations between G2BR^AUP1 and G2BR^gp78. (D) Expansion of overlaid resonances corresponding to UBE2G2 residues showing fast exchange binding kinetics for gp78 RING binding to both UBE2G2:G2BR^AUP1 (left panels) and UBE2G2:G2BR^gp78 (right panels). Spectra were acquired at ratios of RING to UBE2G2:G2BR of 0, 0.33, 0.67, 1.0, 2.0, and 3.0. […]
UBE2G2 and gp78 RING used in titration experiments were expressed and purified as previously described. […] The changes in chemical shift for each peak in the 2D spectrum upon gp78 RING binding was calculated using the following CSP equation: ΔCSP=(ΔδN/5)^2+(ΔδH)^2/2 (1)
The CSPs calculated from Eq 1 were plotted versus the molar ratio of gp78 RING to UBE2G2:G2BR, and the data were fit using the following equation to calculate the dissociation constant (Kd), where x is the ligand-to-protein ratio: ΔCSP=ΔCSPmax/2*1+x+Kd/P−(1+x+Kd)^2/P−4x (2)

T1 sequence (Q9UKV5 313-393, one chain of several): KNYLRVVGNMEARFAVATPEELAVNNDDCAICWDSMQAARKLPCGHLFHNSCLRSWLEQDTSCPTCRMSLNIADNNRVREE

- Kd: 207 ± 6.4 µM
B1: UBE2G2: ERAD ubiquitin-conjugating enzyme (E2); purified in vitro, N-terminally MYC-tagged in cells (protein)
chain: MAGTALKRLMAEYKQLTLNPPEGIVAGPMNEENFFEWEALIMGPEDTCFEFGVFPAILSFPLDYPLSPPKMRFTCEMFHPNIYPDGRVCISILHAPGDDPMGYESSAERWSPVQSVEKILLSVVSMLAEPNDESGANVDASKMWRDDREQFYKIAKQIVQKSLGL
